Measured values taken from paper PMC8725004, “Crystal structures of FolM alternative dihydrofolate reductase 1 from Brucella suis and Brucella canis” (Acta Crystallographica. Section F, Structural Biology …, 2022).

B1: FolM alternative dihydrofolate reductase 1 from Brucella canis (enzyme)
chain: MVLNDPEARMVANCPVLVTGGARRIGKAIVEDLASHGFPVAIHCNRSLDEGEAIANRINDSGGNACVVQADLEGDVRGLVKQASDRIGPIRLLVNNASLFQEDKVGALDMALWDRHFAVHLKTPVILAEDMRKALPEDQDGLVVNIIDQRVWKLNPQFFSYTLSKTALWNATRTLAQALAPRIRVNAIAPGPTLPSERQRPEDFERQVSKLPLQRAPELPEFGRTVRYFWENRSITGQMIALDGGQHLAWETPDIAELPNK
notes: also called BcFolM; His-BcFolM
B2: FolM alternative dihydrofolate reductase 1 from Brucella suis (enzyme)
chain: MLNDPEARMVANCPVLVTGGARRIGKAIVEDLASHGFPVAIHCNRSLDEGEAIANRINDSGGNACVVQADLEGDVRGLVKQASDRIGPIRLLVNNASLFQEDKVGALDMALWDRHFAVHLKTPVILAEDMRKALPEDQDGLVVNIIDQRVWKLNPQFFSYTLSKSALWNATRTLAQALAPRIRVNAIAPGPTLPSERQRPEDFERQVSKLPLQRAPELPEFGRTVRYFWENRSITGQMIALDGGQHLAWETPDIAGITE
notes: also called BsFolM; His-BsFolM

Biological target: the molecule itself
Assay: crystal structure

| Protein | stoichiometry N |
| --- | --- |
| B1 | 4 |
| B2 | 4 |
